Data: patent publication US20180066066A1 (University of Texas, published 2018)

How the values were obtained:
[1] = target: human HER3 receptor on cells (human, UniProt P21860 20-1342); test: cell-based or functional assay
[2] = target: T1, human HER3/ErbB3 extracellular domain (human, UniProt P21860 20-643); test: ELISA on human HER3 ECD
T1 construct: extracellular domain; the range 1-643 of M34309 is printed only for the immunogen; also called Human HER3 ECD; recombinant human HER3

[3] = target: T1, human HER3/ErbB3 extracellular domain; test: SPR, Biacore T-100, HER3 ECD
Mouse HER3 ECD = target: T2, Mouse HER3 ECD (mouse, UniProt Q61526 20-641); test: ELISA on mouse HER3 ECD; column uncertain
T2 construct: extracellular domain; also called mouse HER3 ECD domains
T2 sequence (Q61526 20-641): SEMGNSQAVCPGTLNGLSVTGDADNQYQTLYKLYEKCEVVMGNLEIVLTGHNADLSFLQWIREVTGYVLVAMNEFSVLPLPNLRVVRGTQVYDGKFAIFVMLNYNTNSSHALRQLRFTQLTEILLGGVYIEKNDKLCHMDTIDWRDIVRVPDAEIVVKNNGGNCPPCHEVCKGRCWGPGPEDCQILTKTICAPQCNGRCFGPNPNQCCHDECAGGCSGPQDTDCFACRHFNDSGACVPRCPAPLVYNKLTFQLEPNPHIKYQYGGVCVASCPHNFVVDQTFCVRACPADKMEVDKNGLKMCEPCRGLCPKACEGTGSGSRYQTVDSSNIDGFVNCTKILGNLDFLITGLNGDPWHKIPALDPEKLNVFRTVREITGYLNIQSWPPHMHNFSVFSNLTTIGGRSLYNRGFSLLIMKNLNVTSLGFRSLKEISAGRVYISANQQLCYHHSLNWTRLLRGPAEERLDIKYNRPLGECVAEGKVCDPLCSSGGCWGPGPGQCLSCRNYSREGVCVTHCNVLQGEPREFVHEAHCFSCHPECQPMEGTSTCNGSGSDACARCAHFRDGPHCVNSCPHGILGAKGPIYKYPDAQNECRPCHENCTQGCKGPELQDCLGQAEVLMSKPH

T1 sequence (P21860 20-643): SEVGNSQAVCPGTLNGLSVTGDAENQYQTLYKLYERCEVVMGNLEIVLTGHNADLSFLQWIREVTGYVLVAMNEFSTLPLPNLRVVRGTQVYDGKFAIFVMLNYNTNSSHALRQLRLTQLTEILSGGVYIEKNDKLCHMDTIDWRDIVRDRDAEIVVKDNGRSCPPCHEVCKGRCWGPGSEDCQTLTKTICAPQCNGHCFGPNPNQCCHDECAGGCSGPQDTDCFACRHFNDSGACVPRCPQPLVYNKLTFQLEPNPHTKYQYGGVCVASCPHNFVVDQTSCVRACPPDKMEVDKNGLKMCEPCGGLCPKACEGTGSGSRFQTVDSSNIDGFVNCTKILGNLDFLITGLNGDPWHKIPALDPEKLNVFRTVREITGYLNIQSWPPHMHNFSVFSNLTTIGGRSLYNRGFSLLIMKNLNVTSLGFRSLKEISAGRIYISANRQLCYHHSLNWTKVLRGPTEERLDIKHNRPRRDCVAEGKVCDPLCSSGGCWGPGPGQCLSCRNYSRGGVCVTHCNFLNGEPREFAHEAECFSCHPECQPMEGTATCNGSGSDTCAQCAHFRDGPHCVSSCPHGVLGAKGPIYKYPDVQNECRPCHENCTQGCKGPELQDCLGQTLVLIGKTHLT
Sequence of human HER3 receptor on cells (P21860 20-1342): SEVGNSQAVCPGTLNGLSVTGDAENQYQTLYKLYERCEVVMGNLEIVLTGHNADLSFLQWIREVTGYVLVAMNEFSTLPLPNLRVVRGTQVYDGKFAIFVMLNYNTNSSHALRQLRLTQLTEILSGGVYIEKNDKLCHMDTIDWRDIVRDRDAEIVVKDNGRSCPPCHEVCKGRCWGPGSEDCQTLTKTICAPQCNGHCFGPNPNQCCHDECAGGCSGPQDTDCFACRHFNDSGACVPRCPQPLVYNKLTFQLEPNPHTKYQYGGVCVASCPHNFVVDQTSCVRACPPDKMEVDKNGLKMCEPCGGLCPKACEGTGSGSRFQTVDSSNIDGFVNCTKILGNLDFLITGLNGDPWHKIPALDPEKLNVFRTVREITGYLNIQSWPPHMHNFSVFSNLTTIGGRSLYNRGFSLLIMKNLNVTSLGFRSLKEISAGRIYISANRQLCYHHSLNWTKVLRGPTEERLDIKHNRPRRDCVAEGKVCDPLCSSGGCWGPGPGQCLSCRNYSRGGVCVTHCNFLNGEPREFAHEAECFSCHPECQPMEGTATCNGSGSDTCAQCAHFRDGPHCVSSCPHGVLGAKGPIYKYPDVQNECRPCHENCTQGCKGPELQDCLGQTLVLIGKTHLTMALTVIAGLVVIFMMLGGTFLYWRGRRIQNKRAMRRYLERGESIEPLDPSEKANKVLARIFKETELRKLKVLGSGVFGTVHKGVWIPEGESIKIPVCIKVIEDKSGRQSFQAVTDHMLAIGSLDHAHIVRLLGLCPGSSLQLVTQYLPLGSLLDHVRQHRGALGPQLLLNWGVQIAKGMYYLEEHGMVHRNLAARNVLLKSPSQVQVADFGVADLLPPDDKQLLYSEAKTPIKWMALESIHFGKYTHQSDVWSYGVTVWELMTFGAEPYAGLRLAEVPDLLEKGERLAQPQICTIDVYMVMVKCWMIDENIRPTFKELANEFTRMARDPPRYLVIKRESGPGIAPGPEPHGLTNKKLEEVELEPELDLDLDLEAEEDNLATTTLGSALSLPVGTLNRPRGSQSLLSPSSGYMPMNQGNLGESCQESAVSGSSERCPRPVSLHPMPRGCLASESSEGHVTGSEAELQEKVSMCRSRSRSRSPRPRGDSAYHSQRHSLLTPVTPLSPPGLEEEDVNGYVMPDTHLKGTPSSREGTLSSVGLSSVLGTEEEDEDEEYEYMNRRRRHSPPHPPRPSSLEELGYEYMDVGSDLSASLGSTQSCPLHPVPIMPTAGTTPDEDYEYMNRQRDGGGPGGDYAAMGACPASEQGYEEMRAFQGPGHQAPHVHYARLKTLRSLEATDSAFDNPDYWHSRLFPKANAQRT

pHER3 inhibition (IC50, µg/ml) [1]: 0.033 µg/ml
EC50 [2]: 2.7 ng/mL
Kd [3]: 3.32 nM
koff [3]: 0.000458 s⁻¹
kon [3]: 138000 M⁻¹ s⁻¹
EC50 (Mouse HER3 ECD): 5.9 ng/mL
B1: Chi46 (antibody, V domains shown)
VH: EEQLVESGGGLVQPEGSLTLTCTASGFSFSASYYIYWVRQAPGKGLEGIAYITGDDDKRTYYANWAKGRFTISKTSTTVTLQMTSLTAADTATYFCTRNLPDELWGPGTLVTVSS
VL: QAVVTQTPSSVSAAVGGTVTISCQSSESVYSYKNLAWYQQKPGQPPRLLIWQASRLSSGVSSRFSGSGSGTQFTLTISGVQCDDAATYYCQGTYYSSAWDFVFGGGTEVMVE
notes: also called parental rabbit/human Fc chimera of Rab46
